# Test results taken from a protein production outcome set (Wang et al. 2014).
# Test: label from the status in PepcDB records
row,Sequence,protein production
1,MNLRAIKAILIKDLKEIRREKMVVFWIFVFPLMWVTLMGALWGGPGSPVTVDVGVVNPGGNISTLITEIMENSTINGTQLFNVKLFPNASLGIEALKHGSIKALVLFPEDFDINITSGLQGRVLVYFDKTDPQNYQIVSSIIRSFFSEVGREFRARKIEMMMQYIPTEYKEYLLATAEPIVLEEKIIHGESGRGIKFYVTSFIGIQFFFATMLMIGGSVLEEITKGTLRRIAASPTTPWDFLIGKSLSTLTTIIVSIIIGIGYARVVFGATLFPSLFGWAIIFTAAVFSMSLGLAIVMLTRSERSTPAVVNLVSMPLLFLAGIVIPESIMPEWARPIAHYFPLGRALKVLRLSDIYGRPPGELVGDFIYVLIWSVLMAMVAVASYAWAIRRID,failed
2,MNLTKVKGNTFFIKGGTNTGIYVFEDNTALMIDPGLCGSRPRRVNKVLDENNIQVRYIINTHGHDDHYGACNQFKEYYKDVCIMSSEYDKLYIENPELFSKYIVGGKSNVFMDNILKNKMLDDIKIDKSIEAGKFELNNEMFDIIEFQGHTPGSIAVLTKDNVIFVGDLLIGDEILSKYDFLFLYDIQEQINSLEKLKNIDFEYLVLGHGKQVISKEDSYKLIEKHLNALKKYLYQIRELLVEPKSLEILLKNIINNNNLSNNYKEYHFFKSSLVSVISYLVDLEEIGYILENGELLYYTKTK,failed
3,MNMDPLIYVAALLFTGLLAGLATGLLGVGGGFIIAPVLFFLMEAGGTPPDIAIRTAFGTSLAIILPTALSGAHSHYRRKCVDSRIGITMGVLGACGSVAGVFTASASPAYVLRAFFGVLLILVSAQLLLSSRISPSGFGRNAAFPLGFLAGFLSGLLGIGGGVVLVPLLVMVAGFDVLEAVGTSSLVIAFTAASGTISYIFTGPGGPFTVGYVNLLQFLLVIVMSVPSSRLGALIAHRVDVRYIRYIFIILLLFTGLKMLL,failed
4,MNMIRRLTALTLSLMLAGGPALAQTVVIVRHGEKVSPNGDPDLSDAGKARAQALAAALAGARVSTVLATPLKRTQQTAQPTADAAGLVIRTIALDGGVPAHAQRVAEVARQAPKDATVLIVGHSNTVGEIARALGDAAPSPVTDCDYDQMTIISLDAPTARTLHARYGAPTLPCPTN,failed
5,MNNKDLWIKEEIIWSEHKCIRFAAGGYEALIIPDVGGNVVELKDTNKGVTILRTPKKDLKFEDFKNRPQVYGLPVLFPPNRIDDGTFKLGDKTYKFPINEAKNNNYIHGFIKNSKWTVHKKKIDQDKALVEVVFDFTKENEAYKYFSHEFQFKLSYELSSKGLKQTTSVVNLSSEEMPLSVGYHSAFNVPFIEGSEDSNCRVKISIDKFWKQDSRNLPTGESFAPTGEQKEYLENGVAVASHPIESLFSLKDIDVNGKTFRGACIEDASKNTRVVYEMSSEYKYLVIWNDMGDKKYACIEPQTSIINSPNVKLDRSVSGFKTLKPNESWSGVCKLYIENM,not failed
6,MNNLFVYCEIEEGIVADVSLELLTKGRSLANELNCQLEAVVAGTGLKEIEKQILPYGVDKLHVFDAEGLYPYTSLPHTSILVNLFKEEQPQICLMGATVIGRDLGPRVSSALTSGLTADCTSLEIGDHEDKKEGKVYKNLLYQIRPAFGGNIVATIVNPEHRPQMATVREGVMKKEIVSPAYQGEVIRHDVKKYVADTDYVVKVIERH,not failed
7,MNNLIITTRQSPVRLLVDYVATTILWTLFALFIFLFAMDLLTGYYWQSEARSRLQFYFLLAVANAVVLIVWALYNKLRFQKQQHHAAYQYTPQEYAESLAIPDELYQQLQKSHRMSVHFTSQGQIKMVVSEKALVRA,failed
8,MNNLQTKFPHIAIKLNEPLSKYTYTKTGGAADVFVMPKTIEEAQEVVAYCHQNKIPLTILGNGSNLIIKDGGIRGVILHLDLLQTIERNNTQIVAMSGAKLIDTAKFALNESLSGLEFACGIPGSIGGALHMNAGAYGGEISDVLEAATVLTQTGELKKLKRSELKAAYRFSTIAEKNYIVLDATFSLALEEKNLIQAKMDELTAAREAKQPLEYPSCGSVFKRPPGHFAGKLIQDSGLQGHIIGGAQVSLKHAGFIVNIGGATATDYMNLIAYVQQTVREKFDVELETEVKIIGEDK,not failed
9,MNNNDLFQASRRRFLAQLGGLTVAGMLGPSLLTPRRATAAQAATDAVISKEGILTGSHWGAIRATVKDGRFVAAKPFELDKYPSKMIAGLPDHVHNAARIRYPMVRVDWLRKRHLSDTSQRGDNRFVRVSWDEALDMFYEELERVQKTHGPSALLTASGWQSTGMFHNASGMLAKAIALHGNSVGTGGDYSTGAAQVILPRVVGSMEVYEQQTSWPLVLQNSKTIVLWGSDLLKNQQANWWCPDHDVYEYYAQLKAKVAAGEIEVISIDPVVTSTHEYLGREHVKHIAVNPQTDVPLQLALAHTLYSENLYDKNFLANYCVGFEQFLPYLLGEKDGQPKDAAWAEKLTGIDAETIRGLARQMAANRTQIIAGWCVQRMQHGEQWAWMIVVLAAMLGQIGLPGGGFGFGWHYNGAGTPGRKGVILSGFSGSTSIPPVHDNSDYKGYSSTIPIARFIDAILEPGKVINWNGKSVKLPPLKMCIFAGTNPFHRHQQINRIIEGLRKLETVIAIDNQWTSTCRFADIVLPATTQFERNDLDQYGNHSNRGIIAMKQVVPPQFEARNDFDIFRELCRRFNREEAFTEGLDEMGWLKRIWQEGVQQGKGRGVHLPAFDDFWNNKEYVEFDHPQMFVRHQAFREDPDLEPLGTPSGLIEIYSKTIADMNYDDCQGHPMWFEKIERSHGGPGSQKYPLHLQSVHPDFRLHSQLCESETLRQQYTVAGKEPVFINPQDASARGIRNGDVVRVFNARGQVLAGAVVSDRYAPGVARIHEGAWYDPDKGGEPGALCKYGNPNVLTIDIGTSQLAQATSAHTTLVEIEKYNGTVEQVTAFNGPVEMVAQCEYVPASQVKS,failed
10,MNNPQCSYTVRCFFLALLVNLFLPNILPRQLASAQDVPSEASSDAPDLGVVWTPSTAPDSALAALDRIAATGATAVRLTHLPADTTATTIATRADSLGLRLYVDLPMADGSAPRPDEARPQADASLDQLRSLANRHASITHVGLARGASTTGSRRCDRLRRWTERIHDASASLHTYYVTPFVPSADRCADAVDQPLLDLRGHPRPTDRWRAWRTRTDSVGIGALGTWTRPAAASGLRVPHSAERQARYLETTLSRLLDPTRAAPPVVFVARWQDDDASLLPSRRYGLHDAAGTPRPAATVVRGLYSGTQRTFAFPDGSAPAGTSGLVLVGWGLVAVLGLLYARSLFVRETAVRYFTTPGFYREALRDGREVSFGANSLLLGLVGGSLGVAAARMARLATAQPETERVLAALPRVVGTALAPGVEHPTLAGVAVGGGALVLLLLWTGAGVAMARLGTRFTVAQGLMLVTWPCWPVLLAPPVALAAGPNAPLSPSLSTLVLLGGGTLVLLSVTLRVLFDYWRVTDAPAWTLLPLAALSPLALVGASLLVAAQYGVSFSLLWRLAVYT,failed
11,MNNRGAVTDMISQLPEPLILQILGSLPTKVAITTSVLSKQWQSHWKMMPKLEFDSFLRRLDLENVTKCLLSHKAPVLQTFSLKVRLDRRNNAVDIGCLIGIAMTRNVRKLVLEVYFHRGTFTFPRSLYHCETLETLELILNVVMDVPPSVYLKSLKTLYLLAVDFKDDESVINLLSGCPNLQDLVMRRNSSSNVKTFTIAVPSLQRLAIHNGSGTPQHCGYTINTPSLKYLKLEGSKAFESFMVENVSELIEVNITDVSEIIDEKLRVFLTSVTRLSLALSPSVFTFPTGIIFNQLVYLEICTNKTSWWKLLPLMLHSSPKLQVLKLIDDTDGMNYVEASGEWNQPKNVPECLHHLEKFIWEGYKWKREEIEVAKYILKNTNRLKRAIFSLKGISSEDRLVVVEDLKSVVMATTNSCQFQFI,failed
12,MNNRVEILYCTQCRWLLRATWMTQELLTTFDQEIGELTLKPGTGGLFEVWVNGKRIWSRKEQGGFPEISELKRLVRDEVAPGRDLGHADQKGKTGASPAPAEP,failed
13,MNNSVSSGYDVIGDVHGCASQLEVLLHKLGYETGASGEYRHPERQAIFVGDLIDRGGEQLRVLEVVKAMVDAGSALIVMGNHEFNALAYHTEWPVGSGKYLRPHDDPDNPWSAKNTKQHAAFLDQVRGEDRQRCLEWFATIPLWLDLGELRVVHACWHDDSIGVVENLCGSNAPFGDVSHLVAASTEDDPLYEAVETLLKGPEINLVAHGQPEYHDKDGIPRDNARVQWWNSDARTLRDIAEMGGGFTTSTGEPYPPLPEIALTGADRSYIYTAEIPVFYGHYWRQGSPKHRHDWTDYTACVDFSAVKGGRLTAYRWSGESTIKAENYVTAD,failed
